In US20210101937A1 (Bicycle, published 2021):

B1: BCY12230 (peptide)
peptide 1: DXCSKGWLTMCQKLHLCPSH
peptide 2: CXPEXPYCFADPYXCA
modifications: Ac-C[tBuAla]PE[D-Lys(PYA)]PYCFADPY[Nle]CA; Cys residues bonded to TATA scaffold; [Ac]D[HArg]CSKGWLTMCQK(Ac)LHLCPSH; Cys residues bonded to TATA scaffold
B2: BCY12375 (peptide)
peptide 1: SDKCSAGWLTMCQKLHLCPSH
peptide 2: CXEEKPYCFADPYXCX
modifications: [Ac]C[tBuAla]EE(dK)PYCFADPY[Nle]C[Dap(PYA)]; carries Palmitic acid-PEG10 (Example 1); Cys residues bonded to TATA scaffold; Ac-SDKCSAGWLTMCQK[PYA]LHLCPSH; Cys residues bonded to TATA scaffold
B3: BCY12242 (peptide)
peptide 1: DXCSAGWLTMCQKLKLCPSH
peptide 2: CXPEXPYCFADPYXCA
modifications: Ac-C[tBuAla]PE[D-Lys(PYA)]PYCFADPY[Nle]CA; Cys residues bonded to TATA scaffold; [Ac]D[HArg]CSAGWLTMCQK(Ac)LKLCPSH; Cys residues bonded to TATA scaffold

target: CD137 (UniProt Q07011 24-255, limits assumed); assay: cell-based or functional assay
Sequence (Q07011 24-255 limits assumed): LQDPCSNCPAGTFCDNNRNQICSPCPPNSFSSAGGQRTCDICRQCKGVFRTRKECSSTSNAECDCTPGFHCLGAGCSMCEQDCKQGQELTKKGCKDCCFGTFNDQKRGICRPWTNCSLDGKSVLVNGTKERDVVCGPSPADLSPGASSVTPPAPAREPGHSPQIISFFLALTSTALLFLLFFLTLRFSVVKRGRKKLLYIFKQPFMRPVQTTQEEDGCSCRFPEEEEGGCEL

Going from B1 to B2, the “EC50” value falls from 46 nM to 22 nM (2.1-fold).

In the case of B3, the “EC50” value is reported as 20 nM.

Compared with B1, B2 is lower in “Fold Induction over background” value: 10 fold over background for the first, 3 fold over background for the second.

For B3, the “Fold Induction over background” value was 13 fold over background.
